Results on six molecules are retold here after PMC4856986.

Changes are numbered by the printed parent chain.

The target in data set [1] is T1, OCT6-POU (mouse, UniProt P21952 245-396).
T1 sequence: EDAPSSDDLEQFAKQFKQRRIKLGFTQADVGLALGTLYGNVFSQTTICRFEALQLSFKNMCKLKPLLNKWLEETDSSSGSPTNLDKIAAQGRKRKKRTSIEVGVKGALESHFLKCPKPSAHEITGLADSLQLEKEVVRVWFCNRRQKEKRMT
In words: EMSA. On the technique in general: A gel shift assay detects complexes by their altered migration in electrophoresis.

The target of another data set is T2, BRN2-POU (mouse, UniProt P31360 264-415).
T2 sequence: T1 sequence with A3T, S5T, T74A, N83S, L84I, G103S, H121Q, G125S
In words: EMSA.

Data set [2] addresses T3, SOX18-HMG (79 aa) (Mus musculus, UniProt P43680 77-155). Kind of data set: ITC. Background: ITC needs no label: the signal is the heat of the interaction.
Data set [3] addresses T3, SOX18-HMG (79 aa). Kind of data set: X-ray crystal structure.
The target in another data set is PAX9 (mouse, UniProt P47242 4-130). In words: EMSA and competition.
For data set [4], the target named is T4, ESRRB (DNA binding domain) (mouse, UniProt Q61539 100-186).
T4 sequence: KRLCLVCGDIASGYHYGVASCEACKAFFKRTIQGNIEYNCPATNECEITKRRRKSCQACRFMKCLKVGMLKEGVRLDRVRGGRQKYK
Kind of data set: EMSA and competition.

Data set [5] addresses T1, OCT6-POU. Kind of data set: EMSA competition.

T3 sequence (P43680 77-155): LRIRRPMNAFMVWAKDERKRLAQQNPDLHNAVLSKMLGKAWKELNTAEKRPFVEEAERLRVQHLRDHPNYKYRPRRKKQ
Chain of PAX9 (P47242 4-130): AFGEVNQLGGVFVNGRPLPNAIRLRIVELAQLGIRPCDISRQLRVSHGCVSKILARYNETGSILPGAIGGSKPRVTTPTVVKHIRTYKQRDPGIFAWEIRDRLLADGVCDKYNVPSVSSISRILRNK

B1: Cy5-Pore (dsDNA)
DNA 1: CACATTTGAAAGGCAAATGGAG
DNA 2: CTCCATTTGCCTTTCAAATGTG
For B1, the binding result in the data set with OCT6-POU [1] and in the data set with BRN2-POU was “binds” in each case.

B2: Prox1 15 bp (NAT decoy when unlabelled) (dsDNA)
DNA 1: CTAGCATTGTCTGGG
DNA 2: CCCAGACAATGCTAG
In the case of B2, the Ka with SOX18-HMG (79 aa) [2] stood at 2.47e+06 M⁻¹.

B3: Prox1 crystal DNA, 16 bp with CG overhangs (dsDNA)
DNA 1: CACTAGCATTGTCTGGG
DNA 2: GCCCAGACAATGCTAGT
Consider B3, for which the binding result with SOX18-HMG (79 aa) [3] was “binds”.

B4: Pax element (Cy5/UL) (dsDNA)
DNA 1: AAGCATTTTCACGCATGAGTGCACAG
DNA 2: CTGTGCACTCATGCGTGAAAATGCTT
Consider B4, for which, in the data set with PAX9, the binding result is reported as “binds”.

B5: Esrrb element (Cy5/UL) (dsDNA)
DNA 1: TGGTGACCTTGGCT
DNA 2: AGCCAAGGTCACCA
Turning to B5, the binding result in data set [4] is on record as “binds”.

B6: UL-More (dsDNA)
DNA 1: TCCTCATGCATATGCATGAGGA
DNA 2: TCCTCATGCATATGCATGAGGA
In the case of B6, the binding result with OCT6-POU [5] was “binds”.
